This is an account of results in patent publication US20110171220A1 (ISIS INNOVATION, published 2011).

Test [1] addresses T1, human PD-1 extracellular region / murine CD28 chimera, mutant L16R, on HEK-293T cells (human; mouse, UniProt Q15116 25-170; P31041 151-218, L16R).
T1 construct: extracellular domain;domain: transmembrane and intracellular regions; Single-residue 'drastic' mutant of m4
The test is described as follows: flow cytometry on transfected HEK-293T cells. Here is the method: (§1) Constructs encoding the human extracellular region of PD-1 with the transmembrane and intracellular regions of murine CD28 were cloned into the bi-cistronic mammalian expression vector pGFP2-n2 from BioSignal Packard Ltd, which also encodes GFP. Mutant constructs varying by one amino acid were prepared using the “drastic” mutagenesis approach (Davis et al. Proc Natl Acad Sci USA. 95, 5490-4 (1998)). Plasmids (2 μg/well) were transfected into HEK-293T cells in 6 well plates using Genejuice transfection reagent (Novagen; 6 μl/well). Mock and no-transfection controls were included with each experiment. Cells were harvested at 18-24 hours and stained with anti-PD1 antibodies or isotype controls at 10 μg/ml in PBS-azide for 1 h at 4° C. Cells were washed with PBS-Azide, pelleted at 1500 rpm/5 min and primary antibodies were labelled with Alexa647-conjugated donkey anti-mouse IgG (5 μg/ml) in PBS-Azide for 30 min at 4° C. Cells were washed as above and resuspended in 200 μl PBS-Azide before being analysed at the flow cytometer. Propidium iodide (5 μg/ml) was added immediately prior to analysis to identify dead cells. GFP-positive (transfected) viable cells were gated and analysed for binding of anti-PD1 antibodies. Mutants were defined as ‘knock-out’ (reducing the percentage of cells bound by the anti-PD1 antibody) or ‘knock-down’ (reducing the intensity of antibody staining relative to other PD-1 antibodies).
(§2) Following transfection, cells analysed at the flow cytometer were 85-90% viable by propidium iodide exclusion. Transfection efficiencies ranged from 15-50% (GFP⁺). Isotype controls were negative on all transfectants. […] V18R partially eliminates Clone 19 binding.
Background: In flow cytometry, cells or beads pass a laser one at a time.

In test [2] the target is T2, human PD-1 extracellular region / murine CD28 chimera, mutant R118D, on HEK-293T cells (human; mouse, UniProt Q15116 25-170; P31041 151-218, R118D).
T2 construct: extracellular domain;domain: transmembrane and intracellular regions; Single-residue 'drastic' mutant of m4
T2 sequence (Q15116 other isoform, or with tags, fused parts or gaps R118D | R118D R118D): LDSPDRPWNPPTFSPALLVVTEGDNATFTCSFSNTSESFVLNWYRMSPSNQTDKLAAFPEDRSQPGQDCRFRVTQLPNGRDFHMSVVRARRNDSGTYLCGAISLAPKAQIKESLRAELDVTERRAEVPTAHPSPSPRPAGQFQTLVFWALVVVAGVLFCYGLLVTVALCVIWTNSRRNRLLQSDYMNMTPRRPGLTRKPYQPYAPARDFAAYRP
The test is described as follows: flow cytometry on transfected HEK-293T cells. As for the experimental part:
as §1, §2

Test [3] deals with T3, human PD-1 extracellular region / murine CD28 chimera, mutant V18R, on HEK-293T cells (human; mouse, UniProt Q15116 25-170; P31041 151-218, V18R).
T3 construct: extracellular domain;domain: transmembrane and intracellular regions; Single-residue 'drastic' mutant of m4
T3 sequence (Q15116 other isoform, or with tags, fused parts or gaps V18R | V18R V18R): as the sequence (Q15116 other isoform, or with tags, fused parts or gaps R118D | R118D R118D) above, with V19R, D119R counted along it
In words: flow cytometry on transfected HEK-293T cells. Here is the method: as §1, §2

Test [4] concerns the target T4, Monomeric soluble human PD-1 (human, UniProt Q15116 25-170, limits assumed).
T4 construct: also called soluble PD-1
In words: SPR, antibody captured by rabbit anti-mouse Fc, soluble PD-1 injected. Here is the method:
FIG. 12: Dissociation rates for Clone 2, 10 and 19 antibodies determined by surface plasmon resonance-based analysis. The three antibodies and a negative control (OX-7) were bound indirectly to the biosensor surface, i.e. via a covalently coupled rabbit anti-mouse Fc antibody. Monomeric soluble human PD-1 was then injected to saturating levels over the immobilized antibodies in the buffer 10 mM Hepes, 150 mM NaCl pH 7.4. Following injection of the soluble PD-1, the buffer only was injected, allowing dissociation of the bound soluble PD-1 from each of the antibodies simultaneously. Dissociation rates were fitted using Origin v.5.0 software (MicroCal Software Inc, Northampton, Mass.) after subtraction of the dissociation rate for OX-7 dissociating from the anti-mouse Fc antibody.
For orientation: SPR reads the build-up and loss of mass on a sensor chip optically.

T1 sequence (Q15116 other isoform, or with tags, fused parts or gaps L16R | L16R L16R): as the sequence (Q15116 other isoform, or with tags, fused parts or gaps R118D | R118D R118D) above, with L17R, D119R counted along it
T4 sequence (Q15116 25-170 limits assumed): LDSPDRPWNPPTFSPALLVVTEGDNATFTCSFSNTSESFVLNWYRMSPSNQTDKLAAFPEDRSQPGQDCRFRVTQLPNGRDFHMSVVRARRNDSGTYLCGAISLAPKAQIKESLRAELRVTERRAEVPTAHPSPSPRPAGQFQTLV

B1: Clone 10 anti-PD-1 antibody (antibody, IgG1, V domains shown)
VH: DVQLQESGPGLVKPSQSLSLTCTVTGYSITSDYAWNWIRQFPGNKLEWMGYINYSGSTSYNPSLKSRISITRDTSKNQFFLQLNSVTTEDTATYYCARWIGSSAWYFDVWGAGTTVTV
VL: DVLMTQTPLSLPVSLGDQASISCRSGQNIVHSNGNTYLEWYLQKPGQSPKLLIYKVSNRFFGVPDRISGSGSGTDFTLKISRVEAEDLGVYFCFQGSHVPFTFGSGTKLEIK
notes: the printed VH ends at ...GTTVTV; also called hybridoma 08090902
B1: the binding result in test [1], in test [2] and in test [3] was “binds” each time.

B2: Clone 19 anti-PD-1 antibody (antibody, IgG1, V domains shown)
VH: QVQLQQSGAELVKPGASVKMSCKAFGYTFTTYPIEWMKQNHGKSLEWIGNFHPYNDDTKYNEKFKGKAKLTVEKSSTTVYLELSRLTSDDSAVYYCARENYGSHGGFVYWGQGTLVTV
VL: ENVLTQSPAIMSASPGEKVTMTCRASSSVISSYLHWYQQKSGASPKLWIYSTSNLASGVPDRFSGSGSGTSYSLTISSVEAEDAATYYCQQYNGYPLTFGAGTKLEIK
notes: the printed VH ends at ...GTLVTV; Constant regions are named only in an embodiment (GenBank D78344, V00807); also called monoclonal antibody produced by clone 19; hybridoma 08090901
Turning to B2, the binding result in test [1] is reported as “no binding (tested: 10 µg/ml)”; in test [2], “no binding (tested: 10 µg/ml)”; in test [3] it was “binds”.

B3: Clone 2 anti-PD-1 antibody (antibody, V domains shown)
VH: QVQLQQPGAELVKPGASVKLSCKASGYTFTTYYLYWVRQRPGQGLEWIGGINPSNGGTNFNEKFKSKATLTVDKSSSTAYMQLNSLTSEDSAVYYCTRRDYRYDRGFDYWGQGTSVTV
VL: DIVLTQSPASLAVSLGQRATISCRASKSVSTSGFNYIHWYQQKPGQPPKLLIYLASNLESGVPARFSGSGSGTDFTLNIHPVEDEDAATYYCQHSRELPLTFGAGTKLEIK
notes: The printed VH ends at ...GTSVT; also called hybridoma 08090903
With B3, the binding result in test [4] is “binds”.
